Results on 4 molecules are retold here after PMC8782169, “The distinct RNA-interaction modes of a small ZnF domain underlay TUT4(7) diverse action in miRNA regulation”.

Holding throughout (conditions): protein: recombinant; tags: N-terminal His6 removed by TEV
Data set [1] has as its target T1, hTUT4 CCHC-ZnF2-3 (Homo sapiens, UniProt Q5TAX3 1293-1382).
T1 sequence: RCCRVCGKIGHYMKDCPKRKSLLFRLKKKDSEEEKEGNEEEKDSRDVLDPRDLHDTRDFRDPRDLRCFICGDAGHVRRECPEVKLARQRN
In words: BLI; affinity very similar to ZnF2 (value in figure only); NMR: 10 mM Tris-HCl pH 7.4, 100 mM NaCl, 0.5 mM TCEP, 10 uM ZnCl2, 25 C, 50 uM protein; BLI: streptavidin sensors, 1-8 uM protein, buffer not in material.

Data set [2] has as its target T2, hTUT4 CCHC-ZnF2 (Homo sapiens, UniProt Q5TAX3 1293-1321).
T2 chain: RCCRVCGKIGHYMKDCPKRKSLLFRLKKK
Nature of the data set: BLI; NMR: 10 mM Tris-HCl pH 7.4, 100 mM NaCl, 0.5 mM TCEP, 10 uM ZnCl2, 25 C, 50 uM protein; BLI: streptavidin sensors, 1-8 uM protein, buffer not in material.

The target of data set [3] is T1, hTUT4 CCHC-ZnF2-3. In words: BLI; affinity very similar to ZnF2; ~2-fold slower association and slightly longer lifetime (value in figure only); NMR: 10 mM Tris-HCl pH 7.4, 100 mM NaCl, 0.5 mM TCEP, 10 uM ZnCl2, 25 C, 50 uM protein; BLI: streptavidin sensors, 1-8 uM protein, buffer not in material.
The target of data set [4] is T2, hTUT4 CCHC-ZnF2. In words: NMR titration (15N HSQC CSP); 10 uM ZnCl2; protein:RNA 1:10; NMR: 10 mM Tris-HCl pH 7.4, 100 mM NaCl, 0.5 mM TCEP, 10 uM ZnCl2, 25 C, 50 uM protein; BLI: streptavidin sensors, 1-8 uM protein, buffer not in material.
Data set [5] concerns the target T2, hTUT4 CCHC-ZnF2. Nature of the data set: NMR titration (15N HSQC CSP); 10 uM ZnCl2; NMR: 10 mM Tris-HCl pH 7.4, 100 mM NaCl, 0.5 mM TCEP, 10 uM ZnCl2, 25 C, 50 uM protein; BLI: streptavidin sensors, 1-8 uM protein, buffer not in material.

As for UUUGGA (ssRNA) [UUUGGA RNA (short RNA with SIA sequence)], the binding result with hTUT4 CCHC-ZnF2-3 [1] is listed as “binds”. Moreover, in the data set with hTUT4 CCHC-ZnF2 [2], the Kd was ~4 µM.

Consider UGAGGUAGUAGUUUGUGCUGUU (ssRNA) [Let-7i miRNA], for which, in the data set with hTUT4 CCHC-ZnF2 [2], the Kd was ~4 µM. In the data set with hTUT4 CCHC-ZnF2-3 [3], the binding result was “binds”.

For the molecule UUUU (ssRNA) [UUUU RNA], in the data set with hTUT4 CCHC-ZnF2 [4], the binding result is reported as “no binding”.

Turning to CGGA (ssRNA) [CGGA RNA], in the data set with hTUT4 CCHC-ZnF2 [5], the Kd is 3.7 ± 0.4 µM.
